Source: the DeepSol protein solubility set

Assay: soluble on expression in E. coli; label from the status in PepcDB or PDB records

Soluble on expression in E. coli, not soluble:
MGSDKIHHHHHHMTISRNYDQEIKDTAGHKYAYNFDFDVMHPFMVRAFTPFFRPGNLLELGSFKGDFTSRLQEHFNDITCVEASEEAISHAQGRLKDGITYIHSRFEDAQLPRRYDNIVLTHVLEHIDDPVALLKRINDDWLAEGGRLFLVCPNANAVSRQIAVKMGIISHNSAVTEAEFAHGHRCTYALDTLERDASRAGLQVTYRSGIFFKALANFQWDQILQTDILSKEYLDGCYQLGQQYPDLCASIFLLCEKGINQ, MGSDKIHHHHHHMTKHPLKSLAASVRAAIADPARTTFVGSDANPRFELFHAASSLCSQKVRTVLFEKQLPYRSNDMKILSSMGPDGVVPAEHYHAPYVGLRLIAGEEIGREFVSGYSGRTSVQTEGFDPCVVPLLVDYEASRVIADSRRICCYLDAVSRNPVQLVPEDADARALVMQQVDIVDRIPNGTLLYGFHPDADLRPEALRTVMESVYDYKVAALKAMIDANADNAELVSAYRAKIAKEQGGKSVRHDAALQRAARDHVAVLLADLDRLLGTSSPYLLGPHFSLGDVLWGVNLTRLAYLGLASMWKDRPNVIRYVNALLTRPSLRKEAVRATMDSMPPSRYFDVVSGTAEVASM, MGSDKIHHHHHHMTKKVLILGAHGKIARLAEKEFLEKTDDSLKLFLRKASRLNPVQPDRETVIEGDATNLEQLVAAMQGVDAVYANLAGGDIKQQAQAVVKAMDKVGIKRLVWISTLGIYDEVPGKFGEWNNSTLGSYITNYRAAADVIEDSDLDYTIVRPAWLTNNDEVDFEVTQKGEVFKGTEVSRKSIAHIVVELIQNNTELKHSIGVNKPNTDGDKPSWY, MGSDKIHHHHHHMTKSDLLFDKFNDKHGKFLVFFGTFVDTPKLGELRIREKTSVGVLNGIIRFVNRNSLDPVKDCLDHDSSLSPEDVTVVDIIGKDKTRNNSFYFPGFVDTHNHVSQYPNVGVFGNSTLLDWLEKYTFPIEAALANENIAREVYNKVISKTLSHGTTTVAYYNTIDLKSTKLLAQLSSLLGQRVLVGKVCMDTNGPEYYIEDTKTSFESTVKVVKYIRETICDPLVNPIVTPRFAPSCSRELMQQLSKLVKDENIHVQTHLSENKEEIQWVQDLFPECESYTDVYDKYGLLTEKTVLAHCIHLTDAEARVIKQRRCGISHCPISNSSLTSGECRVRWLLDQGIKVGLGTDVSAGHSCSILTTGRQAFAVSRHLAMRETDHAKLSVSECLFLATMGGAQVLRMDETLGTFDVGKQFDAQMIDTNAPGSNVDMFHWQLKEKDQMQEQEQEQGQDPYKNPPLLTNEDIIAKWFFNGDDRNTTKVWVAGQQVYQI, MGSDKIHHHHHHMTLATMKLQILSDLHIDSYVRQSHPIGHIPKTDADIVLVAGDTANSDIGMPWLQEQAARLQVPLITIAGNHEYFNEDVLHFDKKLATWDNYDSESKQGVQFLQCQYIDIGEVRILGCTLWTDYQYQANEDTMVAALRFMRDYKQIYAGSELFSPEVSMQIHAKQRQWLKQALITAKALGKKTVVMSHHSISPLSVSEKYANLPSNAAFVSDLSQWMYEDWAPALWVHGHTHEAFDYHIHKTRVIVNPRAYPNEVSSTALAFAWDRVIDIG, MGSDKIHHHHHHMTLDPDAKLPETEEGTVVYNTDPLIIRSHYEIDYIHSYAQDSEFFRALGRKKLMGSKCKKCGYVYATPRSHCMMCGSETEWYELPLKGRVHTYTTCYFSGEEFLNETPFNLILVEFDGVNSLFMSRLIGAETKDIYIGMPVKAKFRRNLKMNVTDVYFVPDVEK, MGSDKIHHHHHHMTLINKLKQHLSDSQITQAQLAREAGVNAGALSAYLNDNYKGNIADVEAKLAAYLEKKAVQAREFVEAPAFIETATSRQIFKTLEFAQIANCLATVYGMSGVGKTKAIQEFAKSHANVWLVTASPSRSSLSEILYEIALELGISDAPRRKGTLSRLIARKIKGTEGLLIVDEADHLPYEALEELRIMQEEAGIGLVLVGNDKVYTRMKGGISPSHEYARLWSRVAKNTSIQKTKKADTQAVAQAWGLETDEEALKVMQSITETGGGLRILTQTYACRNGSKRIWQVD, MGSDKIHHHHHHMTLKDIAEMAGVSTMTVSNVINGKTSRVSQKTRDKINSIIEEYNYVPNMNARSLSNNSSHIIGVVTFLEEKEYASGYNYFENPYVSTMIGTIETELHKNGYFTMLQSVSRSSDILSLVKNWNVDGMILVFPTSAQNLEKLMDAANCPIATFDSNYSHPNLINVISDDEKGLYLSTKYMINHGHTEIAFVADYEGNIVLTKRFNGYKKALEDSHIPFRPEYIFSYPPSYEGGIEAGRAIAGSKSPITAVVTTADICAIGIMEGARLGGYRVPIDLSVIGYDNLNLCQYTVPKLTSVSQNVPKKARLATELLLKKIHDNESDSNLGEIIDVEIVDRQSVISLY, MGSDKIHHHHHHMTLNNLEIDTLVVGAGQAGVAMSEHLSKLGVPHLVLERNRIAQAWRTGRWDSLVANGPAWHDRFPGLEFNLDADAFAGKDQVADYFEQYVRKYNLPVRTGIEVKRVVRNSDRPGFTIDTSEGVIRANRVVAATGPFQKPVIPAIAPKDSNLHQIHSAAYFNPEQLPEGAVLVVGAGSSGVQIAEELMRAGRQVYLSVGAHDRPPRAYRNRDFCWWLGVLGEWDAEIAKPGREHVTIAVSGARGGHTVDFRALAHQGMTLVGLTQSFENGVARFQDNLVENINRGDDNYLALLDAADAYIERNGLDLPEEPEARQRLADPECMRNPLQQLDLAKAGVSSIIWATGYGVDFSWLQVDTFDANGKPQHQRGVAREPGVYFLGLPWLSRRGSSFIWGVWHDAKHVAGHIATQRTYTAYRDREQRAADEQQTAKISNVSTLGAH, MGSDKIHHHHHHMTNKTNAASLDIVGIGNAIVDVLTTTDDSFLKKLSFDKGSMTLIDEKKAKELYEMTTNRIQKSGGSVANSLACVAQLGGKAAFIGRVRDDKLGEIFTEEISTTGTIFKTPPSSVGPSTARCIIFVTPDAQRTMCTYLGASVLLEPKDIDLSLVREAKILYLEGYLWDNPAAKNAFIKAAEIAKNAGRKVALSLSDSFCVSRHRESFIKLVEEHIDILFANEDEITNLYETSSLSNALEKLKKKCDLAAITIGEKGSILISNGKEIKIDPFILGKAIDTTGAGDLYAGAFLKGYADGLKPELSAKIGSICAGQIVTQLGSRSNTDLLNLINSHLEA, MGSDKIHHHHHHMTNNRLERFAHNLDWNLLRTFVVVVEEGSITAAANRLLLQQPAVSMALKRLEQTIGQKLIDRRPGRFDLTEAGEKLHLQCRDIFAAVIRLPHVLETAGEEITGHLNIHAVSHAHNPAWDRKLGSFFRMHPKVTISMTVATTVDVLSAVERNIATMGLCDGIIPEGLNKSFHIRERYALYCGRGHRLFGVEGVVFHDLRGDPYIAFIADVLGGQHMNSVTAVRAVGSFGQQVRGVSCNVEEVMRLIAANVGIGMLPDHIASEAVAAGDLWQLPPYRDLPTTDVFRISNPNSILNPAEAAFLAHVADTQALDHCHHQQD, MGSDKIHHHHHHMTNQLLSEQWFEHQAKVTEAIGRPGFAASLFAALGVIRPIQATTVYLYPHDGMPCALFEQDDKAPWQPEGNVSRYLSGFYLLDPFYGACVEQVESGCYGLFEVAPDHFEVSEYYQSFYRHSHLEDELNYILQVAPGQSLAVSLAFTDKLDGQSRTRFGLITPWVLAVLGKHFAGLDSRAGRFENILEQRIHAALNNFGSSLLTERECRIAQLILRGHSTKSLAERLGVSEDTIKSHRKNVYAKLDIGTQSELFSLFIDALANAQGVLGKDPLESYMGKLR, MGSDKIHHHHHHMTNQTQSMALMVPQSSSSLEAYIHSAHNIPMLEANEEYELAKRLQETGDIQAAKQLIMSHLRFVIHVAKGYAGYGLPQADLIQEGNIGLMKAVKRFDPDVGVRLVSFAVHWIKAEIHEYVLKNWRIVKVATTKAQRKLFFNLRKAKKRLGWFSDEEVTMVAENLGVSKSDVTEMESRMAAQDPAFDLASDNDDDQDYAPVHYLEDHSSDIASQVENDNFEADNQTRLLAAIKTLDERSQHILQARWLDEEKTTLQELAATYQVSAERIRQLEKNAMNKLKGRMEM, MGSDKIHHHHHHMTNTIPNWIKLNNEIMIQKDGKYQFEKDKEAVHSYFVDYINQNTVFFHDLKEKLDYLIKNDYYEEEFLSKYTFEQIKSIYKIAYSYKFRFPSFMSAFKFYNDYALKTNDKTKILERYEDRVSIVALYCADGDYEKAVEEVHTMMKQEYQPATPTFLNAGRKRRGEMVSCFLLEVGDSLNDISRAIDISMQLSKLGGGVALNLNKLRAKGEAIKDVENATKGVVGVMKLLDNAFRYADQMG, MGSDKIHHHHHHMTNWLPDLTGGAGPLYQRLADSVEAGIDQGVIGAGTKLPPQRDLAYDIGTTVGTVGRAYQLLRERGLVSGEVGRGTYVLGRRADGVKPEAPDVSVEGTRYVDAPQDKLRFDSTAAPDVGQGAVVADVLSRTAQDHPHEISSYTRDFPGRWYEAGARWLARNSFRPAADGIVPTLGTHAAVMAAIAALTTPGDYVAFEHLTYSQISRSAGLIGRRTALVASDDEGLDPADFERVCAQKHPRMIFLMPTAQNPTLTTLSAGRREAIARVAREYNVILIEDDLYGHLTDDPTPLLAEYAPERTIVAGGLSKSVAAGIRGGWLSCPPAYRHRIRVAHKMMTGGMPFLLAEVNTRLVLSGQASDIRKRCIAEISARIAIVRETLAGFAFKSHDKVPFVWLTLPDPWLSGTFKNACLEHGVLIDDEDEFKAGRSEQVFHGVRFGTSQPRQRGDVANGVAVIRRLLDEGRAGYDSFS, MGSDKIHHHHHHMTNYIEEYCAQIRRMGSAGLIAKPILVDQDGTYTMTYVPHEHLNLGARLVLVSTTPGHAHVRLAAAVTEELLQARTPGRVIQRENKRRVELGGQLIRPNLIRMLDHFRAPELVGLPHAAALWNEGFEQFQPLALLPCATTRRGLAFNGTLEDLLAAPMLRAAFEAHFLGALRQMRPDAFYIALGRTAWSGLRHAASRRLLAKHQLLGMMPVPARAGNMVRYFLREISANDLSPNDPVRHRVDWLDAAHTELMANVQKVRAANMPPEGPNYLIA, MGSDKIHHHHHHMTQEDKKLSCTDCALLNCHKKDKTFPQFCLTTHTPEETIEGVNELYRKDDFVAKLSNAAAEIEGTYYGKLTRVEEIMAFAKRIGAKKIGIATCVGLMSEARIFAKILKAKGLESYGIICKVGAVDKTQVGVPEELKVNKGCHESLCNPVLQATLLNEEKTDLNVIVGLCVGHDSLFIKYSEAPVTTLITKDRVLGHNPAAALYASGFYYRRLLQEGDL, MGSDKIHHHHHHMTRLCRTFQTAPAAIPNDNSAKFLVSGLTSKGFQAPDWLVPDIEDGTAPSMKDEAVDNIIEHIPDHADDFAGDILPRVEWAYDDANARERGIEQVTRLAEAVGEELDGFVFPKVGRLDDVRDAAGVIADAERDAGLPEGTLEMAIILETAPGRSDLREICQYATDSRLSGLVFGPVDYTAELGGRTLDGERPRWDGLLEALSNETSAADIVAIGGPFDQLFHERAGVTYYNAEGYADQVAYEATIGIDGSWSLHPKQTEQANRIHMPTVEEMERDLHKIESFNEAKREGTGAVVVDGQMVDEATYKNFANTVKTVRAIDETHPAQTEAYYDDDLLARARDVELIFG
